Target: SlDOF9-His (Solanum lycopersicum, UniProt A0A3Q7FC45 1-258)
Assay: EMSA (supershift); anti-His antibody; Biotin-labeled and unlabeled probes with purified protein and anti-His antibody, room temperature, 30 min; buffer from kit, salt and pH not stated
Settings: protein: recombinant, tags: C-terminal His, blunt

Sequence of SlDOF9-His (A0A3Q7FC45 entry or part of it): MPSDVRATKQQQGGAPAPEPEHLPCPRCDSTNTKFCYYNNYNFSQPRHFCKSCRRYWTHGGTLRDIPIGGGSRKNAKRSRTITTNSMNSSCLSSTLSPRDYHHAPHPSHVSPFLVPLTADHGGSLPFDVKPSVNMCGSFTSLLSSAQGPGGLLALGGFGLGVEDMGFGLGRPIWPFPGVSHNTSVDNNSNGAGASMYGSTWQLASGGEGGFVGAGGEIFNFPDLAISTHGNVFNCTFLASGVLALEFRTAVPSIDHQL

Row | Binder | binding result (label: biotin (labeled probe)) | binding result
1 | TS1 (dsDNA) DNA 1: AAAAAGTGATAAGAAAAAACATCCAAGCCCT DNA 2: AGGGCTTGGATGTTTTTTCTTATCACTTTTT | binds | –
2 | TS1m (dsDNA) DNA 1: AACATGTGATAAGAAAAAACATCCAAGCCCT DNA 2: AGGGCTTGGATGTTTTTTCTTATCACATGTT | – | no binding
3 | TS2 (dsDNA) DNA 1: AGCCAGAAAAGAAAATACAATAATTCTCATT DNA 2: AATGAGAATTATTGTATTTTCTTTTCTGGCT | binds | –

From PMC12302606, “The SlDOF9‐SlSWEET17 Module: a Switch for Controlling Sugar Distribution Between Nematode Induced Galls and Roots in Tomato”
